Experimental data reported in US20220306762A1 (CRYSTAL BIOSCIENCE, published 2022).
Residue numbers refer to the chain shown, from its start. One block for each binder: values may come before it.

Tests used:
[1] = target: T1, His-tagged human CD38 (ACRO Biosystems cat #CD8-H5224) (human, UniProt P28907 43-300); test: ELISA, coated His-CD38
T1 construct: bought recombinant protein with His tag

[2] = target: T2, His-tagged cynomolgus monkey CD38 (ACRO Biosystems cat #CD8-05223) (cynomolgus monkey, UniProt Q5VAN0 43-301); test: ELISA, coated His-CD38
T2 construct: bought recombinant protein with His tag

[3] = target: T3, His-tagged mouse CD38 (ACRO Biosystems #CD8-M5223) (mouse, UniProt P56528 45-304); test: ELISA, coated His-CD38
T3 construct: bought recombinant protein with His tag; also called Murine
T3 sequence (looked up): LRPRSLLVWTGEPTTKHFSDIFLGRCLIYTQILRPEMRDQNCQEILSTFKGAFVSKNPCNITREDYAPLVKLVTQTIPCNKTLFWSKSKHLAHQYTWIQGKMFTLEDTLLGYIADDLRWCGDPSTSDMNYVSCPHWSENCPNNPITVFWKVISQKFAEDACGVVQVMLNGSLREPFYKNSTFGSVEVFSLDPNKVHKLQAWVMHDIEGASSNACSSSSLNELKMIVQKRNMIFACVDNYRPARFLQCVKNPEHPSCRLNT

[4] = target: T1, His-tagged human CD38 (ACRO Biosystems …); test: SPR, captured scFv-Fc, His-CD38 analyte;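 also: SPR on a Carterra LSA, scFv-Fc captured by anti-human Fc on HC30M chip, His-tagged CD38 (human, mouse, cynomolgus) flowed as analyte in eight 1:2 steps from 400 nM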
[5] = target: T2, His-tagged cynomolgus monkey CD38 (ACRO …); test: SPR, captured scFv-Fc, His-CD38 analyte;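 also: SPR on a Carterra LSA, scFv-Fc captured by anti-human Fc on HC30M chip, His-tagged CD38 (human, mouse, cynomolgus) flowed as analyte in eight 1:2 steps from 400 nM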
[6] = target: T4, human CD38 on transiently transfected Expi293 cells (Origene #SC321273) (human, UniProt P28907 1-300); test: flow cytometry, transfected Expi293 cells;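 also: antibody binding to Expi293 cells transiently expressing human or murine CD38, antibodies applied at 10 ug/ml for 60 min on ice, read by flow cytometry as percent gated cells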
T4 construct: whole, on cells; also called Human (FACs)

[7] = target: T5, murine CD38 on transiently transfected Expi293 cells (Origene MC208001) (murine, UniProt P56528 1-304); test: flow cytometry, transfected Expi293 cells;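 also: antibody binding to Expi293 cells transiently expressing human or murine CD38, antibodies applied at 10 ug/ml for 60 min on ice, read by flow cytometry as percent gated cells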
T5 construct: whole, on cells; also called Murine (FACs)
T5 sequence (looked up): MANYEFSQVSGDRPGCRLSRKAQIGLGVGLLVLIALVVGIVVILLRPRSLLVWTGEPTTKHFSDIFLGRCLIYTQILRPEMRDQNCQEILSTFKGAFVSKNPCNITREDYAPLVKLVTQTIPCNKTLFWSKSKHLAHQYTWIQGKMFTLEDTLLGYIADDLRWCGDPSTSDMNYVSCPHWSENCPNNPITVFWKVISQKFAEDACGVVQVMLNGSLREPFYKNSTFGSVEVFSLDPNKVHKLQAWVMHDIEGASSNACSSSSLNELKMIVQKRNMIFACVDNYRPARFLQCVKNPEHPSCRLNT

[8] = target: T3, His-tagged mouse CD38 (ACRO Biosystems …); test: SPR, captured scFv-Fc, His-CD38 analyte;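 also: SPR on a Carterra LSA, scFv-Fc captured by anti-human Fc on HC30M chip, His-tagged CD38 (human, mouse, cynomolgus) flowed as analyte in eight 1:2 steps from 400 nM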

B1: 40769p1.1.H10 (scFv, V domains shown)
VH: EVQLLESGGGLVQPGGSLRLSCAAFGFTFSDYEMNWVRQAPGKGLEWVSSISITGSWTGYADSVKGRFTISRDNSKNTLYLQMNNLRAEDTAVYYCANYKSYYGMDVWGQGTTVTVSS
VL: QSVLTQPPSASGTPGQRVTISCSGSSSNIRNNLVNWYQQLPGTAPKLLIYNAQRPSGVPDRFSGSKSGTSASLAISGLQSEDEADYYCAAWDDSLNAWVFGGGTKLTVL
notes: tested as scFv-Fc supernatant
ELISA 1 ug/ml [1]: 1.7 | ELISA 1 ug/ml [2]: 1.96 | ELISA 1 ug/ml [3]: 0.048 | Kd [4]: 1.95 nM | Kd [5]: 2.85 nM | FACs 10 ug/ml (percent gated) [6]: 79% | FACs 10 ug/ml (percent gated) [7]: 0.12%

B2: 40566p1.A8 (scFv, V domains shown)
VH: DVQLVESGGGVVRPGESLRLSCAASGFTFDNYDMTWVRQAPGEGLEWVSFISSRGTFTYYTDSVKGRFTISRDNSKNTLYLQMNSLRAEDTAIYYCAKDSGEYYFFDYWGLGTLVTVSS
VL: EIVMTQSPATLSVSPGERATFSCRASQSVNSKLAWYQQKPGQAPRLLIYGASRRATGIPDRFSGSGSGTEFTLTISSLQSEDFAVYYCQQYYDWPPLTFGGGTKVEIK
notes: tested as scFv-Fc supernatant
ELISA 1 ug/ml [1]: 1.87 | ELISA 1 ug/ml [2]: 1.9 | ELISA 1 ug/ml [3]: 1.9 | Kd [4]: 0.872 nM | Kd [8]: 5.81 nM | FACs 10 ug/ml (percent gated) [6]: 17.8% | FACs 10 ug/ml (percent gated) [7]: 70.8%

B3: 40566p1.G12 (scFv, V domains shown)
VH: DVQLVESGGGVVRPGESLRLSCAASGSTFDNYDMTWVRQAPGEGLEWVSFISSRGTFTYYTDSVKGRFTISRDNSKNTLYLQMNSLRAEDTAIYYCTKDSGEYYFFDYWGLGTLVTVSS
VL: B2 VL with G50D
notes: tested as scFv-Fc supernatant
ELISA 1 ug/ml [1]: 1.58 | ELISA 1 ug/ml [2]: 1.62 | ELISA 1 ug/ml [3]: 1.65 | Kd [8]: 2.07 nM | FACs 10 ug/ml (percent gated) [6]: 7.52% | FACs 10 ug/ml (percent gated) [7]: 68.5%

B5: 40566p1.A9 (scFv, V domains shown)
VH: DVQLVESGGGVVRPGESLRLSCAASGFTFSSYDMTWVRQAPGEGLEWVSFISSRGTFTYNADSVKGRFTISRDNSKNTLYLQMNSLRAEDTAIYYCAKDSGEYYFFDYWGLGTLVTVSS
VL: B2 VL with T5M
notes: tested as scFv-Fc supernatant
ELISA 1 ug/ml [1]: 1.87 | ELISA 1 ug/ml [2]: 1.88 | ELISA 1 ug/ml [3]: 2.02 | Kd [8]: 0.918 nM | FACs 10 ug/ml (percent gated) [6]: 19.1% | FACs 10 ug/ml (percent gated) [7]: 75.9%

B9: 40566p1.G9 (scFv, V domains shown)
VH: B2 VH with T61A
VL: B2 VL
notes: tested as scFv-Fc supernatant
ELISA 1 ug/ml [1]: 1.82 | ELISA 1 ug/ml [2]: 1.86 | ELISA 1 ug/ml [3]: 1.93 | Kd [8]: 4.8 nM | FACs 10 ug/ml (percent gated) [6]: 17.8% | FACs 10 ug/ml (percent gated) [7]: 70.7%

Continued by falling Kd [8], values first:

ELISA 1 ug/ml [1]: 1.72 | ELISA 1 ug/ml [2]: 1.6 | ELISA 1 ug/ml [3]: 1.62 | Kd [4]: 470000 nM | Kd [8]: 25.6 nM | FACs 10 ug/ml (percent gated) [6]: 8.31% | FACs 10 ug/ml (percent gated) [7]: 57.7%
B4: 40566p1.B12 (scFv, V domains shown)
VH: B2 VH with T56I, T61A
VL: B2 VL
notes: tested as scFv-Fc supernatant

ELISA 1 ug/ml [1]: 1.87 | ELISA 1 ug/ml [2]: 1.7 | ELISA 1 ug/ml [3]: 1.6 | Kd [8]: 1.97 nM | FACs 10 ug/ml (percent gated) [6]: 11.9% | FACs 10 ug/ml (percent gated) [7]: 64.5%
B8: 40566p1.C11 (scFv, V domains shown)
VH: B2 VH with A97T
VL: B2 VL with M4L, A9G, V13L, F21L, S28T, N30G, Y49F, G50S, R53S, D60A
notes: tested as scFv-Fc supernatant

ELISA 1 ug/ml [1]: 1.98 | ELISA 1 ug/ml [2]: 1.89 | ELISA 1 ug/ml [3]: 1.99 | Kd [8]: 1.03 nM | FACs 10 ug/ml (percent gated) [6]: 25.2% | FACs 10 ug/ml (percent gated) [7]: 72.6%
B7: 40566p1.A12 (scFv, V domains shown)
VH: B2 VH with A97T
VL: B2 VL with G50D
notes: tested as scFv-Fc supernatant; also called 40566p1.Al2

ELISA 1 ug/ml [1]: 1.98 | ELISA 1 ug/ml [2]: 1.96 | ELISA 1 ug/ml [3]: 1.83 | Kd [8]: 0.967 nM | FACs 10 ug/ml (percent gated) [6]: 20.8% | FACs 10 ug/ml (percent gated) [7]: 74.8%
B6: 40566p1.D12 (scFv, V domains shown)
VH: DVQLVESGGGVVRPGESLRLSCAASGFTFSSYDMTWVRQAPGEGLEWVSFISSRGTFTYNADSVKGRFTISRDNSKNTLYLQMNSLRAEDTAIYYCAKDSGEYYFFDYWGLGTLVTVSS
VL: B2 VL
notes: tested as scFv-Fc supernatant
